US9663581

Target: FcγRIIIa on NK cells (human) (UniProt P08637)
Experiment: cell-based or functional assay

UniProt P08637, sequence (P08637 17-254): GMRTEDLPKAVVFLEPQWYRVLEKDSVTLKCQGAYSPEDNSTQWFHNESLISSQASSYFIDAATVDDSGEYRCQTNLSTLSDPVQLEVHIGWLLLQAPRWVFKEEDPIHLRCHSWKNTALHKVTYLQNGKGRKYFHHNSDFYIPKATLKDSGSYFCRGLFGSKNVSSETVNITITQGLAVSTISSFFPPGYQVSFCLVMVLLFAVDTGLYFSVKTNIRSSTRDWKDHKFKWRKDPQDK

wild type rituximab (antibody)
ADCC EC50 (LDH release, Raji target cells, human PBMC effector cells): 0.046 µg/mL
